For assay [1], the target named is T1, cAMP-dependent Protein Kinase (Catalytic Subunit) (Mus musculus, UniProt P05132).
T1 construct: purchased Calbiochem
The experiment in a line: Continuous fluorescence kinase assay, kinetic constants of Sox peptide substrate with PKA. The assay is classed as biochemical. The note with it: 20 mM HEPES pH 7.4, 10 mM MgCl2, 1 mM ATP, 1 mM DTT, 40 units PKA, 30° C.; average of four Hanes plots. Here is the method: A typical reaction contained solution 5 (90 μl), solution 6 (20 μl), solution 7 (1 μl) and an appropriate volume of substrate stock solution. Enzyme working stock (1 μl) was added to begin the reaction.
5 nm emission and excitation slit widths were used.
Substitution of (2) into (I) followed by rearrangement, yields: […]

In the next assay the target is Protein Kinase Cα (Homo sapiens, UniProt P17252). Particulars: 20 mM HEPES pH 7.4, 10 mM MgCl2, 0.3 mM CaCl2, 1 mM ATP, 0.7 nM PKCα, 30° C.; average of four Hanes plots. The procedure: PKC: On the day of the assay, a 1 μl aliquot of Protein Kinase Cα (Human, Recombinant, Calbiochem) was diluted with 20 μl of solution 4 and stored on ice. A typical reaction contained solution 4 (84 μl), solution 6 (19 μl), solution 8 (5 μl), solution 7 (1 μl), and enzyme working stock (1 μl). An appropriate volume of substrate stock solution was added to begin the reaction.
Fluorescence experiments were performed on a Fluoromax 3 from Jobin Yvon. 5 nm emission and excitation slit widths were used. For all experiments, an excitation wavelength of 360 nm was used. Enzyme assays were performed by monitoring emission at 485 nm.
To solve for Km and Vmax for this reaction, determination of the initial rate of product formation from the increase in fluorescence intensity is necessary. With this sensor, a correction for the decrease in fluorescence intensity due to the starting material being consumed is needed to determine the rate of product formation from the initial slope. The fluorescence intensity at any given point can be determined from the following equation: I(t)=fSS(t)+fPP(t) (1) where I(t) is the fluorescence intensity, S(t) is the amount of substrate in μM, P(t) is the amount of product in μM, fS is the fluorescence intensity per μM) of substrate, and fP is fluorescence intensity per μM of product. The amount of substrate and product at any given point are related by: S(t)+P(t)=S0 (2) where S0 is the initial amount of substrate. Substitution of (2) into (I) followed by rearrangement, yields:
The initial slope of the reaction, dI(t)/dt, was measured within the first 5% of substrate turnover. The constants fP and fS were calculated from the slope of a line of fluorescence intensity versus concentration of P and S, respectively. A linear fit of a Hanes plot ([…]) was used to find Km and Vmax.

Marks after values point to notes of the source that are not given here. Sox = metal binding amino acid

In the case of “Ac-Leu-Arg-Arg-Ala-Ser-Leu-Pro-Sox-NH2 (Ac-LRRASLP-{Sox-NH2}) [Ac-LRRAS*LP-Sox-NH2, Sox-containing peptide substrate (sensor) for PKA]”, in assay [1], the Km (in general, the concentration of substrate that gives half-maximal velocity) was 1.8 ± 0.5 µM and the Vmax is listed as 3.7 ± 1.6^f μmol/min/mg.
For the substance “Ac-Sox-Pro-Gly-Ser-Phe-Arg-Arg-Arg-NH2 [Ac-Sox-PGS*FRRR-NH2]”, on Protein Kinase Cα, the Michaelis-Menten constant (Km) was 8.6 ± 2.9 µM and the Vmax was 5.9 ± 1.9^d μmol/min/mg.
“Ac-Sox-Pro-Gly-Thr-Phe-Arg-Arg-Arg-NH2 ({Ac-Sox}-PGTFRRR-NH2) [Ac-Sox-PGT*FRRR-NH2]”: in the assay with Protein Kinase Cα, the Km is 23 ± 3 µM and the Vmax was 2.3 ± 0.6^d μmol/min/mg.

The values above are taken from US7892775B2, “Fluorescence assay for kinase activity” (Massachusetts Institute of Technology, priority 2003, dated 2011).
